Laboratory results reported in patent publication US20190330277A1 (PIRBRIGHT INSTITUTE, published 2019).

Experiments:
Assay in all cases: biolayer interferometry (Octet), variant on Ni-NTA tip, Fab in solution
bRSV ATue51908 DSCav1 = bRSV ATue51908 DSCav1 (bovine respiratory syncytial virus, …, UniProt P22167 26-109)
[1] = molecular target: bRSV ATue51908 sc9-10 DS-Cav1 A149C-Y458C (bovine respiratory syncytial virus, …)
bRSV RB94 postF = bRSV RB94 postF (bovine respiratory syncytial virus, …, UniProt P23728 26-109; P23728 147-513)
bRSV 391-2 postF = bRSV 391-2 postF (bovine respiratory syncytial virus, …, UniProt P22167 26-109; P22167 147-513)
[2] = molecular target: bRSV 391-2 sc9-10 DS-Cav1 Q98C-Q361C (bovine respiratory syncytial virus, …)
bRSV ATue51908 postF = bRSV ATue51908 postF (bovine respiratory syncytial virus, …, UniProt P22167 26-109; P22167 147-513)
[3] = molecular target: bRSV 391-2 sc9 DS-Cav1 Q98C-Q361C (bovine respiratory syncytial virus, …)
bRSV 391-2 DSCav1 = bRSV 391-2 DSCav1 (bovine respiratory syncytial virus, …, UniProt P22167 26-109)

Row | Binder | Kd (bRSV ATue51908 DSCav1) [nM] | Kd [1] [nM] | Kd (bRSV RB94 postF) [nM] | Kd (bRSV 391-2 postF) [nM] | Kd [2] [nM] | Kd (bRSV ATue51908 postF) [nM] | Kd [3] [nM] | Kd (bRSV 391-2 DSCav1) [nM]
1 | D25 Fab (Fab, V domains shown, also called mAb D25) VH: QVQLVQSGAEVKKPGSSVMVSCQASGGPLRNYIINWLRQAPGQGPEWMGGIIPVLGTVHYAPKFQGRVTITADESTDTAYIHLISLRSEDTAMYYCATETALVVSTTYLPHYFDNWGQGTLVTVSS VL: DIQMTQSPSSLSAAVGDRVTITCQASQDIVNYLNWYQQKPGKAPKLLIYVASNLETGVPSRFSGSGSGTDFSLTISSLQPEDVATYYCQQYDNLPLTFGGGTKVEIK | 10.8 | 420 | – | – | – | – | – | –
2 | MPE8 Fab (Fab, V domains shown, also called mAb MPE8) VH: EVQLVESGGGLVKPGGSLRLSCAASGFTFSSYSMNWVRQAPGKGLEWVSSISASSSYSDYADSAKGRFTISRDNAKTSLFLQMNSLRAEDTAIYFCARARATGYSSITPYFDIWGQGTLVTVSS VL: QSVVTQTPSVSGAPGQRVTISCTGSSSNIGAGYDVHWYQQLPGTAPKLLIYDNNNRPSGVPDRFSASKSGTSASLAITGLQAEDEADYYCQSYDRNLSGVFGTGTKVTVL | – | – | > 1000 | > 1000 | – | – | – | –
3 | AM14 Fab (Fab, V domains shown, also called mAb AM14) VH: EVQLVESGGGVVQPGRSLRLSCAASGFSFSHYAMHWVRQAPGKGLEWVAVISYDGENTYYADSVKGRFSISRDNSKNTVSLQMNSLRPEDTALYYCARDRIVDDYYYYGMDVWGQGATVTVSS VL: DIQMTQSPSSLSASVGDRVTITCQASQDIKKYLNWYHQKPGKVPELLMHDASNLETGVPSRFSGRGSGTDFTLTISSLQPEDIGTYYCQQYDNLPPLTFGGGTKVEIKR | 4.8 | 12.8 | > 1000 | > 1000 | 12.8 | > 1000 | 8.6 | 1.8
